Laboratory results published in patent US20030171565A1 (VANDERBILT UNIVERSITY, published 2003).

Molecular target: T1, tyrosine phosphatase SHP-1 (human, UniProt P29350 1-595)
T1 construct: mature
Test: anti-PZR immunoprecipitation from pervanadate-treated cells, Western blot

T1 sequence (P29350 whole entry): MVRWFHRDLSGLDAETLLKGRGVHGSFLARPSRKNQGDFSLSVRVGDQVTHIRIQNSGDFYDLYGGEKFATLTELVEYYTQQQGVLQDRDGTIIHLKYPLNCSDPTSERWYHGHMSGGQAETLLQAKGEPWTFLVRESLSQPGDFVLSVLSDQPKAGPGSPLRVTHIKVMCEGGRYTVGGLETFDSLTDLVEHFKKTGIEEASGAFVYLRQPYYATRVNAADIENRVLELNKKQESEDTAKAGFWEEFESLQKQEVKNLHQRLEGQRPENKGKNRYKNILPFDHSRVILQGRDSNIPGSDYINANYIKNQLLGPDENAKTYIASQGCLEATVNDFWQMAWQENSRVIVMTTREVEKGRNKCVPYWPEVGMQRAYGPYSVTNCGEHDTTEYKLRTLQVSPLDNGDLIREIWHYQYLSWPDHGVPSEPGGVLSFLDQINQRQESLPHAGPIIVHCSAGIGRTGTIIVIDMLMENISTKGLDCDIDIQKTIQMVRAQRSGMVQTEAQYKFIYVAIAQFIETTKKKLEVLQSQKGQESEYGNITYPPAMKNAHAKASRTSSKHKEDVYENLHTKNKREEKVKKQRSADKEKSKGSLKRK

binding result: no binding
B1: protein zero related (PZR), tyrosine-phosphorylated (receptor)
chain: SALEVYTPKEIFVANGTQGKLTCKFKSTSTTGGLTSVSWSFQPEGADTTVSFFHYSQGQVYLGNYPPFKDRISWAGDLDKKDASINIENMQFIHNGTYICDVKNPPDIVVQPGHIRLYVVEKENLPVFPVWVVVGIVTAVVLGLTLLISMILAVLYRRKNSKRDYTGCSTSESLSPVKQAPRKSPSDTEGLVKSLPSGSHQGPVIYAQLDHSGGHHSDKINKSESVVYADIRKN
modifications: phosphotyrosine at 241 and 263 (cells treated with pervanadate, or cells expressing catalytically inactive SHP-2); N-glycosylated
notes: It was assayed in Triton X-100 cell extracts or as protein purified from 293 cells; also called hPZR; p43
